Here are results for 141 substances from the supplement of paper PMC12042874.

This data set is described as follows: amyloid nucleation score (Sup35N fusion, yeast selection) (log enrichment); library NNK1; higher = more nucleation; inactive = no reads after selection. The method in brief: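 The nucleation score equals the log enrichment of output over input reads from DiMSum, centred on the mode score of non-aggregating sequences. It was computed only for sequences with 100 or more input reads. The reads came from Illumina sequencing of plasmid inserts from psi-negative yeast expressing Sup35N fused to peptides of 20 random codons, induced with 100 μM copper sulfate for 24 hours and grown 7 days at 30°C without adenine and uracil.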

± gives the uncertainty stated by the source.

SFTVVGLKLTIVRDNNS yielded an amyloid nucleation score of 3.86 ± 0.12.

HRDNH returned an amyloid nucleation score of -0.253 ± 0.35.

Substance LSSLGDLLLMNQPNAQRLTY gave an amyloid nucleation score of -0.746 ± 1.

QVFKHGSPGHMLALCQRAV: the amyloid nucleation score is 1.39 ± 0.63.

On to VKGLRSLGSTCRSLKDGITV, for which the amyloid nucleation score result is “inactive”.

Consider TINWEPRFRVLHSPIYRGCY, for which the amyloid nucleation score result is “inactive”.

Regarding VVTEKGLPWARQW, the amyloid nucleation score is -0.205 ± 0.33.

SKETAFGLSL yielded an amyloid nucleation score of -0.368 ± 0.54.

Substance WAMDKGWKVNHCNEAPMIHC showed an amyloid nucleation score of -0.053 ± 0.37.

As to EIAYVLICRHLLECIRA, the amyloid nucleation score result was “inactive”.

As for EKNCRADATV, the amyloid nucleation score is -1.96 ± 1.8.

FQSLGTFLDIQLCGHNLVAE: the amyloid nucleation score is 0.537 ± 0.34.

In the case of RFVIVEVSWLDSLLRLSWED, the amyloid nucleation score was determined as 0.277 ± 0.99.

Take VWGYVMRS: the amyloid nucleation score came out at 0.299 ± 0.95.

Take EPIYCFCDCNGSRWALYVSV: the amyloid nucleation score was found to be 0.421 ± 0.54.

In turn, SFSNVRNI had an amyloid nucleation score of -1.52 ± 0.81.

Take IGNPMWCQWSAL: the amyloid nucleation score worked out at 0.721 ± 0.74.

Turning to TRCIAVFIGD, the amyloid nucleation score was 2.52 ± 0.11.

SVIVMVCVGL had an amyloid nucleation score of 1.78 ± 0.13.

The substance YNDYACRYCFLVGTMD had an amyloid nucleation score of 7.615 ± 0.052.

For the substance KRWTKNFDCFQTVMHIYCSQ, the amyloid nucleation score result is “inactive”.

The substance NFKNKIMGALS yielded an amyloid nucleation score of -0.548 ± 2.1.

As to TLLPARGGKKAR, the amyloid nucleation score is 0.256 ± 0.49.

Consider YVSYDQTNSAAYYVRVRLRF, for which the amyloid nucleation score is 0.947 ± 0.73.

Consider LLRGTIFVNDRVTID, for which the amyloid nucleation score came to 0.973 ± 0.59.

GFNLAW: the amyloid nucleation score was -0.547 ± 0.56.

The substance STSATPYFSFRKIFMASAAS displayed an amyloid nucleation score of -0.029 ± 0.57.

Consider FSSEVRVWVWNCCFNRFSCI, for which the amyloid nucleation score was found to be 4.74 ± 0.061.

Turning to VCESVNNAHAAYSAVLSVQM, the amyloid nucleation score was -0.347 ± 0.54.

The substance RGSTLSGVYCAENRASGFDS showed an amyloid nucleation score of 0.93 ± 0.33.

Take SLLRRA: the amyloid nucleation score amounted to 0.575 ± 0.71.

Take MKRDSFPLFNFCLA: the amyloid nucleation score stood at 0.137 ± 0.5.

With RCYFAWPEWLGYGCVVMERG, the amyloid nucleation score is -0.435 ± 0.52.

With CLGVSSGRLKCYVNYYCDNW, the amyloid nucleation score was found to be 0.106 ± 0.51.

For the substance LLNVVCRARVWS, the amyloid nucleation score was -0.241 ± 0.32.

In the case of RSWPHGCVAEQNTCSPHKLA, the amyloid nucleation score worked out at 1.48 ± 0.55.

MKRTFRTLF had an amyloid nucleation score of 0.57 ± 0.41.

As for VLGLGSC, the amyloid nucleation score was -0.15 ± 0.54.

Take RTTFA: the amyloid nucleation score worked out at 0.38 ± 0.33.

As for YLVSTSRWGYLVLTLMWKEG, the amyloid nucleation score result is “inactive”.

STLLYGLLAYWTYGFAWLFF: the amyloid nucleation score result was “inactive”.

TAGFPLCYNCYEKP: the amyloid nucleation score is -0.625 ± 0.35.

Consider FCISLFSHWFALW, for which the amyloid nucleation score came out at 5.72 ± 0.067.

With VQCFLAQRSVDSGATELIIV, the amyloid nucleation score amounted to 0.114 ± 0.59.

TQSSNPTLGGFQFHLWVNIF returned an amyloid nucleation score of -1.85 ± 0.95.

As to WDFDYSMCVLYMVTAIRLWR, the amyloid nucleation score is -0.26 ± 0.54.

Substance GYGYFSIVTTRMIVGVHVKC came in with an amyloid nucleation score of -0.509 ± 0.57.

Consider GICWLISCGRIVAGSSEQYV, for which the amyloid nucleation score was determined as 0.924 ± 0.3.

In the case of VLISPGFLSVARCLSLDTLF, the amyloid nucleation score is -0.343 ± 0.33.

The substance NDLYVGLDTYYIRHNLTRWF showed an amyloid nucleation score of 0.447 ± 0.2.

On to PGNGTGVSTDGWVTLMHRRR, for which the amyloid nucleation score is -0.709 ± 0.53.

Consider KLSYFSQEKRDNWPISRLPS, for which the amyloid nucleation score is 0.072 ± 0.3.

The substance GFFYEWRVYCPAWINALWWH gave an amyloid nucleation score of 0.193 ± 0.77.

VRRDQDRPFSTMRQGLRFGH: the amyloid nucleation score worked out at 0.248 ± 0.31.

For SACNYVRRNVAHVRLLSL, the amyloid nucleation score worked out at 0.564 ± 0.53.

VYFRCTWAISMFFYMSNAGW registered an amyloid nucleation score of 1.35 ± 0.21.

As for VKGVVYAGH, the amyloid nucleation score is -1.44 ± 1.8.

As to FENCHHYGTARFKDLPRSIV, the amyloid nucleation score is -0.208 ± 0.66.

The substance NPDDVFMSAVWGYF displayed an amyloid nucleation score of -0.127 ± 0.19.

Substance WLINTPTHWVFVDIVWYWSK showed an amyloid nucleation score of 0.051 ± 0.84.

Consider FLFLYNVGVVIRSGYMFLRS, for which the amyloid nucleation score was determined as 0.088 ± 0.93.

On to IYFTSTMKLRQDILADNEHC, for which the amyloid nucleation score came out at 1.08 ± 0.54.

TSCVLFLYTPLTGSFLAGCP registered an amyloid nucleation score of -0.46 ± 0.59.

CPWRNRII gave an amyloid nucleation score of 0.684 ± 0.6.

Turning to FNSGNQ, the amyloid nucleation score is -0.442 ± 0.37.

For the substance FKTYYLATLDTNS, the amyloid nucleation score is -1.73 ± 2.4.

LLCFLFTK gave an amyloid nucleation score of 3.32 ± 0.15.

Turning to SDTLCPSADWVRRSARCQVD, the amyloid nucleation score is 0.8 ± 0.74.

LGFAA yielded an amyloid nucleation score of -0.339 ± 1.3.

As to AIKCHL, the amyloid nucleation score was -0.721 ± 1.9.

KVLNFNLSRACLLWDSFNSV: the amyloid nucleation score worked out at 2.65 ± 0.19.

Consider ITMFNLYQCSL, for which the amyloid nucleation score was 5.78 ± 0.065.

Regarding SETLTMFRYCISIRDKGPQG, the amyloid nucleation score amounted to 1.24 ± 0.37.

QCANAVNHRTLGLMLFKMVL gave an amyloid nucleation score of 0.19 ± 0.5.

With KDNLYWKDLSVCLRRFVGLH, the amyloid nucleation score entry is “inactive”.

In the case of HHFAYWCIVWPE, the amyloid nucleation score was 0.728 ± 0.54.

Substance VLGKLEWCNLSSVTRAPCFM gave an amyloid nucleation score of 0.14 ± 0.71.

In the case of ICTEIRRGLHE, the amyloid nucleation score amounted to 1.11 ± 0.71.

In turn, MRNVTFTGLMLDSDWNVH showed an amyloid nucleation score of -0.338 ± 1.1.

In the case of GQVHRFIWLVT, the amyloid nucleation score is -0.11 ± 0.3.

For the substance KCTELTTCRSPVMKGEAVWL, the amyloid nucleation score is -0.052 ± 0.77.

For the substance YYQRGVDYNIVFLRT, the amyloid nucleation score was determined as 1.16 ± 0.52.

On to FFALVYW, for which the amyloid nucleation score amounted to 0.275 ± 0.29.

Take RARLNRFVICVSLDMLVLWM: the amyloid nucleation score is -0.709 ± 0.45.

Substance IWDHCFGPVKCCNIWGKEVG registered an amyloid nucleation score of 5.1 ± 0.079.

Substance LDHYDVSGNRMVL had an amyloid nucleation score of -0.487 ± 0.27.

Take ERNSITSILKRNRLSRGFAL: the amyloid nucleation score turned out to be 2.44 ± 0.48.

For the substance AYWGHITGKVKFMEAAPLDV, the amyloid nucleation score was 1.63 ± 0.73.

Take GEKWMLEVASFICKSGFRVC: the amyloid nucleation score is -0.535 ± 1.7.

For the substance LLGRLVQCCRPWY, the amyloid nucleation score was -1.17 ± 2.7.

Take CVFYISINCYFIWVRLDWVY: the amyloid nucleation score entry is “inactive”.

As to DCPTYWFVAKFFANWVR, the amyloid nucleation score result is “inactive”.

GLMLDLFVSSVYSIT came in with an amyloid nucleation score of 0.655 ± 0.42.

ICWLC displayed an amyloid nucleation score of 6.912 ± 0.055.

Regarding GPTATVPPRHTREFILFKYS, the amyloid nucleation score is -0.593 ± 1.

LVITVYLYVRRDFCFAFGWL: the amyloid nucleation score was -1.06 ± 1.2.

Turning to MCSLYFLYGAGVSCGSVLNV, the amyloid nucleation score worked out at 0.063 ± 0.4.

Take RYSWSYEKKWIDNLQLVLR: the amyloid nucleation score was -0.609 ± 0.22.

Turning to GFELVNVVGVIASLYNIIIV, the amyloid nucleation score was 2.92 ± 0.2.

Substance VYTSRDGNDLEACGGYSAIV yielded an amyloid nucleation score of 0.705 ± 0.71.

In the case of LHAGHSSLNALAYSFRLHDR, the amyloid nucleation score was found to be 0.775 ± 0.52.

Take MMSSFDVWDS: the amyloid nucleation score was -0.077 ± 0.73.

Consider SVARCASPMQSLSLRGRPEG, for which the amyloid nucleation score result is “inactive”.

Substance VFLACNMMYDTKVQTHGYRG returned an amyloid nucleation score of 4.23 ± 0.07.

Take EGPQIKAAGKPY: the amyloid nucleation score was -0.373 ± 0.32.

Consider FFTCNGWAGS, for which the amyloid nucleation score was -0.614 ± 0.38.

On to STAAVHCRMRTRFQLRRLRD, for which the amyloid nucleation score was -0.086 ± 0.35.

In turn, GVGGLWVEDSWRQRLDSEWA yielded an amyloid nucleation score of -0.014 ± 0.48.

AAFSDPRNRLMKPVELKHAL had an amyloid nucleation score of 1.31 ± 0.9.

LILSYAN came in with an amyloid nucleation score of 1.33 ± 0.66.

Consider LLYSMDRQVLMSAISLLSIT, for which the amyloid nucleation score turned out to be 0.903 ± 0.63.

In turn, LDSDGVASYDTRMSIRWYIE yielded an amyloid nucleation score of 2 ± 0.49.

For RMLCYEFCCLNLDVGIYCAS, the amyloid nucleation score result was “inactive”.

For the substance FGGWVSLRSQKCMRPWRLGG, the amyloid nucleation score is -1.22 ± 1.4.

The substance YGLDPHSAAEALLVRPNTGR returned an amyloid nucleation score of -0.18 ± 0.41.

Consider WHLWIVTTVTHMGSNNFLG, for which the amyloid nucleation score result is “inactive”.

Regarding EDSGNVIGEYFWKF, the amyloid nucleation score was -1.44 ± 1.9.

LAMFHSWGVGFATLGVKISE registered an amyloid nucleation score of 1.04 ± 0.78.

Substance MMLSLISVQV gave an amyloid nucleation score of 0.379 ± 0.68.

The substance IVWSYSRTIYLNFI returned an amyloid nucleation score of 0.873 ± 0.68.

Substance SVSYRDCVVKILK had an amyloid nucleation score of 4 ± 0.074.

In the case of LTSFSTDPISGLLAGCFSID, the amyloid nucleation score entry is “inactive”.

Consider IANCQAGWGCRQA, for which the amyloid nucleation score turned out to be 0.315 ± 0.32.

NPKSFNGCVFRLGGVPYFVS had an amyloid nucleation score of 0.076 ± 0.36.

Regarding CNFLLATWRRLKYTSQYLKS, the amyloid nucleation score is -0.073 ± 0.69.

In turn, CLFLDWMPM gave an amyloid nucleation score of 0.548 ± 0.84.

VKCPVGDDHWGSRGDASVIT: the amyloid nucleation score is -0.004 ± 0.8.

The substance FCKWCRFDDCTRGYIYFVRR had an amyloid nucleation score of 1.76 ± 0.37.

Take YLVVPERLVANRMVS: the amyloid nucleation score is -1.68 ± 2.4.

Take INNSDSCVMLMMNRVFCHGG: the amyloid nucleation score was found to be 6.085 ± 0.048.

As to NRRSSKLIN, the amyloid nucleation score result is “inactive”.

YLYIRLPVITVRLDWLFGAK returned an amyloid nucleation score of 0.464 ± 0.84.

As for YWVWYDVYGSWLGSWYYKRG, the amyloid nucleation score was 0.278 ± 0.52.

Consider DTKIDACIRNSLHGWSRMAR, for which the amyloid nucleation score was 0.181 ± 0.38.

Take ILAWAMGI: the amyloid nucleation score came out at 0.777 ± 0.78.

Turning to RRPENKCYHPLVCDFVAVWF, the amyloid nucleation score was determined as 0.476 ± 1.1.

HNFWLCAVSYQDRVMFLSVF: the amyloid nucleation score came to 0.497 ± 0.31.

In turn, MVRYLGYYLPNWRSFHWHRL came in with an amyloid nucleation score of 0.951 ± 0.44.

With RLHSS, the amyloid nucleation score is -0.036 ± 0.32.

DPIRCMCVFMVHPCRCDID showed an amyloid nucleation score of 0.45 ± 1.1.

For NCGVYIVYQKRLQAVGYCAN, the amyloid nucleation score was -0.312 ± 0.3.
